According to patent US20240344040A1, “PROKARYOTIC AND EUKARYOTIC CELLS WITH BIOSYNTHESIZED SULFOTYROSINE FOR GENETIC INCORPORATION” (William Marsh Rice University, priority 2023, published 2024):
*: point of attachment. sulfate = O=S(=O)(O)*

Key:
thrombin [1] = target: T1, thrombin (Homo sapiens, UniProt P00734); conditions: sulfated versus unsulfated hirudin; cited from earlier work
thrombin [2] = target: T1, thrombin; experiment: chromogenic thrombin amidolytic activity assay; type: biochemical; conditions: tight-binding model, Morrison equation; inhibitors expressed in E. coli, sulfotyrosine biosynthesized; read-out: Ki, inhibition of thrombin activity
Description: FIG. 18: Inhibition constants (Ki) of all thrombin inhibitors used in this study: Ki+standard error were calculated based on a tight-binding model, using Morrison equation in Prism. Standard errors were calculated from n=3 independent samples.
To test the thrombin inhibiting activity of the wild type inhibitors and their sulfotyrosine-containing mutants, chromogenic thrombin amidolytic activity assays were performed in the presence of a range of concentrations of each inhibitor. […] Double sulfation of chimadanin at both Tyr28 and Tyr31 further improved its Ki to 0.1 nM, consistent with the madanin-1 study. […] This may be due to the fact that co-translational folding is more efficient than that achieved via chemical synthesis.

[3] = tested on: tyrosine sulfation (sulfotyrosine-containing sfGFP production); experiment: green fluorescent protein assay of tyrosine sulfotransferase activity; type: cell-based, Escherichia coli; conditions: BL21(DE3), pBad vector, sfGFP134TAG reporter, LB medium
Description: To explore the activity of these sulfotransferases towards tyrosine, a green fluorescent protein assay was used (Chen et al., 2018; Chen et al., 2019). […] The suppressor plasmid (pUltra-sulfotyrosine) was used to suppress the amber codon (Asp134TAG) within a sfGFP variant encoded by the pLei-sfGFP134TAG plasmid in the presence of sulfotyrosine. Expression of full-length sfGFP was carried out in LB medium for 16 hours in parallel with controls BL21(DE3) harboring pUltra-sulfotyrosine, pLei-sfGFP134TAG and pBad-Empty in the presence and absence of exogenously fed 1 mM sulfotyrosine.

B1: hirudin: thrombin inhibitor; tyrosine-sulfated form compared with unsulfated; SEQ ID NO: 109 in Table 1 (protein, listed as Hirudo medicinalis)
chain: MKKNIAFLLASMFVFSIATNAYAMRYTACTESGQNQCICEGNDVCGQGRNCQFDSSGKKCVEGEGTRKPQNEGQHDFDPIPEEYLSHHHHHH
modifications: tyrosine sulfation
Which “increase of affinity for thrombin by tyrosine sulfation” value (thrombin [1]) does the source give for B1 here?
The value was “more than 10 fold”.

B2: wildtype chimadanin: thrombin inhibitor from the salivary gland of Haemaphysalis longicornis, His-tagged, expressed in E. coli; Table 1 sequence names seem swapped (protein)
chain: MQPKEKTKGVEVEGNPATLISARQMDVSYDEYEDNGPDVIPGEPAKPRGGPKNGAASGKFDQIPDFSSESHHHHHHH
For B2, which Ki (thrombin [2]) is on record?
The Ki was 12.9 nM.

B3: Madanin-1 sulfated at both Tyr32 and Tyr35 (protein)
chain: MYPERDSAKEGNQEQERALHVKVQKRTDGDADY(sulfate)DEY(sulfate)EEDGTTPTPDPTAPTAKPRLRGNKPHHHHHH
With B3 as the molecule, how does the Ki (thrombin [2]) read?
Its Ki is 0.5 nM.

B4: A0A091VQH7: putative sulfotransferase from Nipponia nippon, SEQ ID NO: 1 (protein)
chain: IALDKMEDLSLKETVVSRAEICEVEGIPFTKPICSTWDQVWKFKARPDDLLIATYTKAGTTWTQEIVDMIQQNGDVEKCRRATTYRRHPFLEWSIQEPPAASYSGLELAEAMPSPRTIKTHLPVQLLPPSFWEQNCKIIYVARNAKDNLVSYYHFHRMSKEMPDPGTWEEFMEKFMTGKVLWGSWYDHVKGWWKAKDRHRILYLFYEDMKENPKQEIQKILKFLEKDVNQEVLNKILHNTSFEIMKDNPMTNYTTEFQGIMDHSISPFMRKGVVGDWKNYFTVAQNEKFDEDYKKKMADTSLVFRTEL
modifications: Nipponia nippon
With B4 as the molecule, how does the “increase in fluorescence compared to cells not given exogenous sulfotyrosine” value [3] read?
Its value is 2.5 fold.
